Data from paper PMC10539308, “Acetylation reprograms MITF target selectivity and residence time”.

How the values were obtained:
[1] = target: Ac-K206 MITF DBD (Homo sapiens) (UniProt O75030); experiment: fluorescence anisotropy; conditions: 10 mM Tris/HCl pH 7.5, 300 mM NaCl, 0.01% Triton X-100, 0.1 mg/mL BSA, 25 C, 5 min, 1.33 nM dsDNA, quadratic fit, n=3
MITF DBD WT [2] = target: T1, MITF DBD WT (UniProt Q08874 287-403); experiment: fluorescence anisotropy; 10 mM Tris/HCl pH 7.5, 300 mM NaCl, 0.01% Triton X-100, 0.1 mg/mL BSA, 25 C, 5 min, 1.33 nM dsDNA; quadratic fit, n=3; conditions: protein: recombinant; tags: His (Ni-NTA purified; pETM-11); chain copies: 2; label: 3' fluorescein on strand 1; blunt (annealed with complementary oligonucleotide)
MITF DBD WT [3] = target: T1, MITF DBD WT; experiment: fluorescence anisotropy; moderately reduced vs CLEAR-box; 10 mM Tris/HCl pH 7.5, 300 mM NaCl, 0.01% Triton X-100, 0.1 mg/mL BSA, 25 C, 5 min, 1.33 nM dsDNA; quadratic fit, n=3; conditions: protein: recombinant; tags: His (Ni-NTA purified; pETM-11); chain copies: 2; label: 3' fluorescein on strand 1; blunt (annealed with complementary oligonucleotide)

Sequence of Ac-K206 MITF DBD (Homo sapiens) (O75030 whole entry): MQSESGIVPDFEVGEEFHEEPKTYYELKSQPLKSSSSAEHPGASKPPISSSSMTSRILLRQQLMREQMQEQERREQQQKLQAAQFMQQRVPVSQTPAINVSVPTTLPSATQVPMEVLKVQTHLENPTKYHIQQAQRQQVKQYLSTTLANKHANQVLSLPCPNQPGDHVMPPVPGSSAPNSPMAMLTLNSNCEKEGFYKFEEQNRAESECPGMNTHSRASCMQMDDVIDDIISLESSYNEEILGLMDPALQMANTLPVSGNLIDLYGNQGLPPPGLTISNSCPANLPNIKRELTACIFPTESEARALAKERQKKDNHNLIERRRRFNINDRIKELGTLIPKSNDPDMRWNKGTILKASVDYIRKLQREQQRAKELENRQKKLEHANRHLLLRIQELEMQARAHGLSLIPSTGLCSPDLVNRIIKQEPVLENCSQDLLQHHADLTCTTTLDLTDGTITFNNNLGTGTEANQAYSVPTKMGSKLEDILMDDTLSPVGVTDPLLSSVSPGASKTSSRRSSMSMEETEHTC
T1 sequence (Q08874 287-403): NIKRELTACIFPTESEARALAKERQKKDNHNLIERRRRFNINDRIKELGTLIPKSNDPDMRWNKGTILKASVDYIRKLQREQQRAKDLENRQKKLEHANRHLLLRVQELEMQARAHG

GAGATCACGTGATGAC (double strand) [CLEAR-box]
binding signal (fold reduced vs WT on CLEAR-box) [1]: 3

GAGATCATGTGATGAC (double strand) [TYR enhancer]
binding signal ([1]; scale: fold further reduced vs Ac-K206 on CLEAR-box): 5

GAGATCATGTGTTGAC (double strand) [M-box]
binding signal (fold reduced vs Ac-K206 on CLEAR-box) [1]: 20

B1: CLEAR-box (dsDNA)
DNA 1: GAGATCACGTGATGAC
DNA 2: GTCATCACGTGATCTC
binding result (MITF DBD WT [2]): binds

B2: TYR enhancer (dsDNA)
DNA 1: GAGATCATGTGATGAC
DNA 2: GTCATCACATGATCTC
binding result (MITF DBD WT [3]): binds
